Biological target: the molecule itself
Test: dynamic light scattering; TRAF2-C 4 uM in kinase buffer (20 mM Tris-HCl pH 7.6, 150 mM NaCl, 10% glycerol); 20-35 °C, where the particle distribution is sharp and mono-disperse

B1: TRAF2-C, C-terminal domain truncated form of TNF Receptor Associated Factor 2 (TRAF2) (domain or fragment, human, UniProt Q12933 310-501, looked up)
chain: DQDKIEALSSKVQQLERSIGLKDLAMADLEQKVLEMEASTYDGVFIWKISDFARKRQEAVAGRIPAIFSPAFYTSRYGYKMCLRIYLNGDGTGRGTHLSLFFVVMKGPNDALLRWPFNQKVTLMLLDQNNREHVIDAFRPDVTSSSFQRPVNDMNIASGCPLFCPVSKMEAKNSYVRDDAIFIKAIVDLTGL
notes: human TRAF2, C-terminal domain (TRAF2-C), residues 310-501; It describes the protein as a trimer in equilibrium with dimers and monomers; also called TRAF2-C domain; source: E. coli BL21 (DE3), purified (NiNTA, Sephadex G25)
Question: Does B1 bind?
Answer: binds

Reference: paper PMC8198530, “The Odd Faces of Oligomers: The Case of TRAF2-C, A Trimeric C-Terminal Domain of TNF Receptor-Associated Factor” (International Journal of Molecular Sciences, 2021)
